Measurements: doi:10.1101/2025.11.18.25340485 (medRxiv, 2025)

Molecular target: T1, WT-RBD (receptor-binding domain of the SARS-CoV-2 wild-type, Wuhan-Hu-1, spike protein) (SARS-CoV-2, UniProt P0DTC2)
T1 construct: not shown: His6, C-terminal, kept
Test: BLI
Conditions: both partners purified

B1: CC25.4 Fab (Fab, V domains shown)
VH: QVQLVQSGAEVKKPGASVKVSCKASGYTFTDYFLHWVRQAPGQGLEWMGWINPDSGGTNYAQRFQGRVTMTRDTSISTAYMEVSRLRSDDTAVYYCARDNERYQMQNYYHYYGMDVWGQGTTVTVVS
VL: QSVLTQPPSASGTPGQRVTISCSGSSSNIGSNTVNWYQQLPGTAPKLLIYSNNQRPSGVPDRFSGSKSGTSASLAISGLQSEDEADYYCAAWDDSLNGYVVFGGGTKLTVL
notes: also called class V antibody; source: ExpiCHO cells, co-transfected, purified (CaptureSelect CH1-XL, SEC)
Q: With B1 as the binder, how does the Kd read?
A: Its Kd is 0.4 nM.
